Assay results: the supplement of paper PMC5998384

Assays:
HeLa Kyoto [1] = test: solubility in G1/S (NP-40 vs SDS abundance) (log2 ratio); higher = more soluble; settings: cell cycle stage: G1/S
HeLa Kyoto [2] = test: melting temperature (median over replicates), in situ; higher = more thermally stable
HeLa Kyoto [3] = test: solubility change mitosis vs G1/S (difference of NP-40 vs SDS log2 ratios) (log2 ratio difference); higher = more soluble in mitosis
HeLa Kyoto [4] = test: thermal stability score vs G1/S (z-score of summed log2 fold changes over temperatures); higher = more thermally stable than in G1/S
[5] = cell cycle stage: early G1 (4.5 h after nocodazole release)
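Wherever melting temperature (median over replicates), in situ is given: HeLa Kyoto cells synchronized by double thymidine or nocodazole block, proteins quantified by TMT10plex mass spectrometry, three independent biological replicates.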
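Wherever solubility change mitosis vs G1/S (difference of NP-40 vs SDS log2 ratios) is given: synchronized HeLa Kyoto cells (double thymidine block for G1/S, nocodazole release for mitosis), protein amounts in NP-40 versus SDS lysates quantified by mass spectrometry, three biological replicates.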
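Wherever solubility in G1/S (NP-40 vs SDS abundance) is given: HeLa Kyoto cells arrested at G1/S by double thymidine block, proteins quantified by TMT10plex mass spectrometry in mild NP-40 versus SDS extracts, three biological replicates.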
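Wherever thermal stability score vs G1/S (z-score of summed log2 fold changes over temperatures) is given: synchronized HeLa Kyoto cells, proteins quantified by TMT10plex mass spectrometry, three biological replicates, mitosis taken 0.5 h after nocodazole release, G1/S directly after double thymidine block.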

Sequence	solubility in G1/S (log2) (HeLa Kyoto [1])	melting temperature (HeLa Kyoto [2]; cell cycle stage: G1/S)	melting temperature (HeLa Kyoto [2]; cell cycle stage: mitosis)	solubility change mitosis (log2) (HeLa Kyoto [3])	thermal stability score (HeLa Kyoto [4]; [5])	thermal stability score (HeLa Kyoto [4]; cell cycle stage: mitosis)
MASACGAPGPGGALGSQAPSWYHRDLSRAAAEELLARAGRDGSFLVRDSESVAGAFALCVLYQKHVHTYRILPDGEDFLAVQTSQGVPVRRFQTLGELIGLYAQPNQGLVCALLLPVEGEREPDPPDDRDASDGEDEKPPLPPRSGSTSISAPTGPSSPLPAPETPTAPAAESAPNGLSTVSHDYLKGSYGLDLEAVRGGASHLPHLTRTLATSCRRLHSEVDKVLSGLEILSKVFDQQSSPMVTRLLQQQNLPQTGEQELESLVLKLSVLKDFLSGIQKKALKALQDMSSTAPPAPQPSTRKAKTIPVQAFEVKLDVTLGDLTKIGKSQKFTLSVDVEGGRLVLLRRQRDSQEDWTTFTHDRIRQLIKSQRVQNKLGVVFEKEKDRTQRKDFIFVSARKREAFCQLLQLMKNKHSKQDEPDMISVFIGTWNMGSVPPPKNVTSWFTSKGLGKTLDEVTVTIPHDIYVFGTQENSVGDREWLDLLRGGLKELTDLDYRPIAMQSLWNIKVAVLVKPEHENRISHVSTSSVKTGIANTLGNKGAVGVSFMFNGTSFGFVNCHLTSGNEKTARRNQNYLDILRLLSLGDRQLNAFDISLRFTHLFWFGDLNYRLDMDIQEILNYISRKEFEPLLRVDQLNLEREKHKVFLRFSEEEISFPPTYRYERGSRDTYAWHKQKPTGVRTNVPSWCDRILWKSYPETHIICNSYGCTDDIVTSDHSPVFGTFEVGVTSQFISKKGLSKTSDQAYIEFESIEAIVKTASRTKFFIEFYSTCLEEYKKSFENDAQSSDNINFLKVQWSSRQLPTLKPILADIEYLQDQHLLLTVKSMDGYESYGECVVALKSMIGSTAQQFLTFLSHRGEETGNIRGSMKVRVPTERLGTRERLYEWISIDKDEAGAKSKAPSVSRGSQEPRSGSRKPAFTEASCPLSRLFEEPEKPPPTGRPPAPPRAAPREEPLTPRLKPEGAPEPEGVAAPPPKNSFNNPAYYVLEGVPHQLLPPEPPSPARAPVPSATKNKVAITVPAPQLGHHRHPRVGEGSSSDEESGGTLPPPDFPPPPLPDSAIFLPPSLDPLPGPVVRGRGGAEARGPPPPKAHPRPPLPPGPSPASTFLGEVASGDDRSCSVLQMAKTLSEVDYAPAGPARSALLPGPLELQPPRGLPSDYGRPLSFPPPRIRESIQEDLAEEAPCLQGGRASGLGEAGMSAWLRAIGLERYEEGLVHNGWDDLEFLSDITEEDLEEAGVQDPAHKRLLLDTLQLSK [INPPL1]	0.0138	48.6 °C	48.6 °C	-0.119	0.612	2.56
MASESDTEEFYDAPEDVHLGGGYPVGSPGKVGLSTFKETENTAYKVGNESPVQELKQDVSKKIIESIIEESQKVLQLEDDSLDSKGKELSDQATASPIVARTDLSNIPGLLAIDQVLPEESQKAESQNTFEETELELKKCFPSDETCEKPVDETTKLTQTSSTEQLNVLETETEVLNKEAVEVKGGGDVLEPVSSDSLSTKDFAAVEEVAPAKPPRHLTPEPDIVASTKKPVPARPPPPTNFPPPRPPPPSRPAPPPRKRKSELEFETLKTPDIDVPKENITSDSLLTASMASESTVKDSQPSLDLASATSGDKIVTAQENGKAPDGQTVAGEVMGPQRPRSNSGRELTDEEILASVMIKNLDTGEEIPLSLAEEKLPTGINPLTLHIMRRTKEYVSNDAAQSDDEEKLQSQPTDTDGGRLKQKTTQLKKFLGKSVKRAKHLAEEYGERAINKVKSVRDEVFHTDQDDPSSSDDEGMPYTRPVKFKAAHGFKGPYDFDQIKVVQDLSGEHMGAVWTMKFSHCGRLLASAGQDNVVRIWALKNAFDYFNNMRMKYNTEGRVSPSPSQESLSSSKSDTDTGVCSGTDEDPDDKNAPFRQRPFCKYKGHTADLLDLSWSKNYFLLSSSMDKTVRLWHISRRECLCCFQHIDFVTAIAFHPRDDRYFLSGSLDGKLRLWNIPDKKVALWNEVDGQTKLITAANFCQNGKYAVIGTYDGRCIFYDTEHLKYHTQIHVRSTRGRNKVGRKITGIEPLPGENKILVTSNDSRIRLYDLRDLSLSMKYKGYVNSSSQIKASFSHDFTYLVSGSEDKYVYIWSTYHDLSKFTSVRRDRNDFWEGIKAHNAVVTSAIFAPNPSLMLSLDVQSEKSEGNEKSEDAEVLDATPSGIMKTDNTEVLLSADFTGAIKVFVNKRKNVS [WDR44]	-0.102	55.7 °C	55.1 °C	-0.145	-1.63	-2.21
MASFVTEVLAHSGRLEKEDLGTRISRLTRRVEEIKGEVCNMISKKYSEFLPSMQSAQGLITQVDKLSEDIDLLKSRIESEVRRDLHVSTGEFTDLKQQLERDSVVLSLLKQLQEFSTAIEEYNCALTEKKYVTGAQRLEEAQKCLKLLKSRKCFDLKILKSLSMELTIQKQNILYHLGEEWQKLIVWKFPPSKDTSSLESYLQTELHLYTEQSHKEEKTPMPPISSVLLAFSVLGELHSKLKSFGQMLLKYILRPLASCPSLHAVIESQPNIVIIRFESIMTNLEYPSPSEVFTKIRLVLEVLQKQLLDLPLDTDLENEKTSTVPLAEMLGDMIWEDLSECLIKNCLVYSIPTNSSKLQQYEEIIQSTEEFENALKEMRFLKGDTTDLLKYARNINSHFANKKCQDVIVAARNLMTSEIHNTVKIIPDSKINVPELPTPDEDNKLEVQKVSNTQYHEVMNLEPENTLDQHSFSLPTCRISESVKKLMELAYQTLLEATTSSDQCAVQLFYSVRNIFHLFHDVVPTYHKENLQKLPQLAAIHHNNCMYIAHHLLTLGHQFRLRLAPILCDGTATFVDLVPGFRRLGTECFLAQMRAQKGELLERLSSARNFSNMDDEENYSAASKAVRQVLHQLKRLGIVWQDVLPVNIYCKAMGTLLNTAISEVIGKITALEDISTEDGDRLYSLCKTVMDEGPQVFAPLSEESKNKKYQEEVPVYVPKWMPFKELMMMLQASLQEIGDRWADGKGPLAAAFSSSEVKALIRALFQNTERRAAALAKIK [ZW10]	-0.218	49.6 °C	49.5 °C	-0.19	0.485	1.13
MASGEHSPGSGAARRPLHSAQAVDVASASNFRAFELLHLHLDLRAEFGPPGPGAGSRGLSGTAVLDLRCLEPEGAAELRLDSHPCLEVTAAALRRERPGSEEPPAEPVSFYTQPFSHYGQALCVSFPQPCRAAERLQVLLTYRVGEGPGVCWLAPEQTAGKKKPFVYTQGQAVLNRAFFPCFDTPAVKYKYSALIEVPDGFTAVMSASTWEKRGPNKFFFQMCQPIPSYLIALAIGDLVSAEVGPRSRVWAEPCLIDAAKEEYNGVIEEFLATGEKLFGPYVWGRYDLLFMPPSFPFGGMENPCLTFVTPCLLAGDRSLADVIIHEISHSWFGNLVTNANWGEFWLNEGFTMYAQRRISTILFGAAYTCLEAATGRALLRQHMDITGEENPLNKLRVKIEPGVDPDDTYNETPYEKGFCFVSYLAHLVGDQDQFDSFLKAYVHEFKFRSILADDFLDFYLEYFPELKKKRVDIIPGFEFDRWLNTPGWPPYLPDLSPGDSLMKPAEELAQLWAAEELDMKAIEAVAISPWKTYQLVYFLDKILQKSPLPPGNVKKLGDTYPSISNARNAELRLRWGQIVLKNDHQEDFWKVKEFLHNQGKQKYTLPLYHAMMGGSEVAQTLAKETFASTASQLHSNVVNYVQQIVAPKGS [RNPEP]	0.182	50.1 °C	50.3 °C	-0.179	1.06	1.25
MASGVTVNDEVIKVFNDMKVRKSSTQEEIKKRKKAVLFCLSDDKRQIIVEEAKQILVGDIGDTVEDPYTSFVKLLPLNDCRYALYDATYETKESKKEDLVFIFWAPESAPLKSKMIYASSKDAIKKKFTGIKHEWQVNGLDDIKDRSTLGEKLGGNVVVSLEGKPL [CFL2]	0.129	55.1 °C	54.2 °C	-0.058	-0.937	-3.81
MASILDEYENSLSRSAVLQPGCPSVGIPHSGYVNAQLEKEVPIFTKQRIDFTPSERITSLVVSSNQLCMSLGKDTLLRIDLGKANEPNHVELGRKDDAKVHKMFLDHTGSHLLIALSSTEVLYVNRNGQKVRPLARWKGQLVESVGWNKALGTESSTGPILVGTAQGHIFEAELSASEGGLFGPAPDLYFRPLYVLNEEGGPAPVCSLEAERGPDGRSFVIATTRQRLFQFIGRAAEGAEAQGFSGLFAAYTDHPPPFREFPSNLGYSELAFYTPKLRSAPRAFAWMMGDGVLYGALDCGRPDSLLSEERVWEYPEGVGPGASPPLAIVLTQFHFLLLLADRVEAVCTLTGQVVLRDHFLEKFGPLKHMVKDSSTGQLWAYTERAVFRYHVQREARDVWRTYLDMNRFDLAKEYCRERPDCLDTVLAREADFCFRQRRYLESARCYALTQSYFEEIALKFLEARQEEALAEFLQRKLASLKPAERTQATLLTTWLTELYLSRLGALQGDPEALTLYRETKECFRTFLSSPRHKEWLFASRASIHELLASHGDTEHMVYFAVIMQDYERVVAYHCQHEAYEEALAVLARHRDPQLFYKFSPILIRHIPRQLVDAWIEMGSRLDARQLIPALVNYSQGGEVQQVSQAIRYMEFCVNVLGETEQAIHNYLLSLYARGRPDSLLAYLEQAGASPHRVHYDLKYALRLCAEHGHHRACVHVYKVLELYEEAVDLALQVDVDLAKQCADLPEEDEELRKKLWLKIARHVVQEEEDVQTAMACLASCPLLKIEDVLPFFPDFVTIDHFKEAICSSLKAYNHHIQELQREMEEATASAQRIRRDLQELRGRYGTVEPQDKCATCDFPLLNRPFYLFLCGHMFHADCLLQAVRPGLPAYKQARLEELQRKLGAAPPPAKGSARAKEAEGGAATAGPSREQLKADLDELVAAECVYCGELMIRSIDRPFIDPQRYEEEQLSWL [VPS18]	-0.115	50.1 °C	49.5 °C	-0.0584	0.54	1.02
MASILLRSCRGRAPARLPPPPRYTVPRGSPGDPAHLSCASTLGLRNCLNVPFGCCTPIHPVYTSSRGDHLGCWALRPECLRIVSRAPWTSTSVGFVAVGPQCLPVRGWHSSRPVRDDSVVEKSLKSLKDKNKKLEEGGPVYSPPAEVVVKKSLGQRVLDELKHYYHGFRLLWIDTKIAARMLWRILNGHSLTRRERRQFLRICADLFRLVPFLVFVVVPFMEFLLPVAVKLFPNMLPSTFETQSLKEERLKKELRVKLELAKFLQDTIEEMALKNKAAKGSATKDFSVFFQKIRETGERPSNEEIMRFSKLFEDELTLDNLTRPQLVALCKLLELQSIGTNNFLRFQLTMRLRSIKADDKLIAEEGVDSLNVKELQAACRARGMRALGVTEDRLRGQLKQWLDLHLHQEIPTSLLILSRAMYLPDTLSPADQLKSTLQTLPEIVAKEAQVKVAEVEGEQVDNKAKLEATLQEEAAIQQEHREKELQKRSEVAKDFEPERVVAAPQRPGTEPQPEMPDTVLQSETLKDTAPVLEGLKEEEITKEEIDILSDACSKLQEQKKSLTKEKEELELLKEDVQDYSEDLQEIKKELSKTGEEKYVEESKASKRLTKRVQQMIGQIDGLISQLEMDQQAGKLAPANGMPTGENVISVAELINAMKQVKHIPESKLTSLAAALDENKDGKVNIDDLVKVIELVDKEDVHISTSQVAEIVATLEKEEKVEEKEKAKEKAEKEVAEVKS [LETM1]	0.088	52.9 °C	52.3 °C	-0.0749	-0.277	-1.56
MASIWVGHRGTVRDYPDFSPSVDAEAIQKAIRGIGTDEKMLISILTERSNAQRQLIVKEYQAAYGKELKDDLKGDLSGHFEHLMVALVTPPAVFDAKQLKKSMKGAGTNEDALIEILTTRTSRQMKDISQAYYTVYKKSLGDDISSETSGDFRKALLTLADGRRDESLKVDEHLAKQDAQILYKAGENRWGTDEDKFTEILCLRSFPQLKLTFDEYRNISQKDIVDSIKGELSGHFEDLLLAIVNCVRNTPAFLAERLHRALKGIGTDEFTLNRIMVSRSEIDLLDIRTEFKKHYGYSLYSAIKSDTSGDYEITLLKICGGDD [ANXA3]	0.2	52.3 °C	52.2 °C	-0.0404	-0.635	-1.21
